# Assay results: publication PMC4981310 (PLoS Pathogens, 2016)
# Test system: Nc1ncnc2c1ncn2[C@@H]1O[C@H](COP(=O)(O)OP(=O)(O)O[C@H]2O[C@H](CO)[C@@H](O)[C@H](O)[C@H]2O)[C@@H](O)[C@H]1O
# Experiment: purified protein
# Conditions: Mg2+ (stimulates kcat) compulsory-order ternary-complex mechanism; ADP-glucose binds before glucose 1-phosphate
substance,measurement,value
GlgA (Mycobacterium tuberculosis H37Rv),Km,46 ± 4 µM
same,Vmax,21.4 µmol/min/mg
same,kcat,15.4 ± 0.3 s⁻¹
